“Also recorded” adds a separate entry of the source.

The text below walks through data of US10047402B2, “RASAL1 is a major tumor suppressor gene in thyroid cancer” (THE JOHNS HOPKINS UNIVERSITY, priority 2013, dated 2018).

The subject of experiment [1] is thyroid cancer cell lines. As to the kind of experiment: Demethylation (MSP) and re-expression (RT-PCR) of RASAL1 after 5-Aza-dC treatment. To be noted: for demethylation of RASAL1 (MSP analysis): thyroid cancer cell lines, 5 μM 5-Aza-dC for 24 hours. The experiment is classed as cell-based, human. Here is the method: FIG. 2. Hypermethylation of RASAL1 and its re-expression induced by demethylation in thyroid cancer cells. […] After cells were treated with 5 μM 5-Aza-dC for 24 hours, RNA and genomic DNA were extracted and used for reverse-transcription polymerase chain reaction (RT-PCR) and MSP analysis, respectively. C) RT-PCR analysis of RASAL1 expression in thyroid cancer cell lines treated with or without demethylating agent 5-Aza-dC. D) MSP analysis of RASAL1 in matched normal and cancerous thyroid tissues. Six matched sample pairs are presented that had different methylation patterns between normal and matched tumor tissues. E) RASAL1 methylation levels represented by the indicated allelic methylation percentages (x-axis) and their frequencies (y-axis) in different types of thyroid cancers. ATC=anaplastic thyroid cancer; FTC=follicular thyroid cancer; PTC=papillary thyroid cancer.
DNA bisulfate treatment was performed as previously described (29). See Table 3 for MSP primer sequences. The relative level of methylation was normalized using the ratio obtained from the values of the gene of interest over the values of the internal reference gene (β-actin). The relative methylation level was calculated by the formula [M/(M+U)]×100%, in which M and U represent the density of the methylation and unmethylation band, respectively. Results represent the percentage of allelic methylation of the tumor.
RNA extraction and semi-quantitative RT-PCR were performed as previously described (Liu et al., 13(4) CLIN. CANCER RES. 1341-49 (2007)). Normal human thyroid RNA samples (Stratagene, La Jolla, Calif.) were used as the control. The RT-PCR primers are presented Table 3.

Experiment [2] relates to K1 cell-derived xenograft tumors. As to the kind of experiment: Xenograft tumor formation in nude mice.
Text: The procedures for the construction of doxycycline (Dox)-inducible expression device for RASAL1 and transfection of K1 cells are as described in the Materials and Methods section below. […] Each time point represents the average±standard deviation of the values obtained from four mice in each group. Two-tailed paired Student t test was used to compare tumor sizes at week 5. H) Photographs of the tumors that were surgically removed from mice in each group after they were killed at the end of 5 weeks from the cell inoculation. I) Weight of individual tumors surgically removed from the animals in each group corresponding to (H). The average weight of the tumors from each group is indicated with a short horizontal bar.
The animals' care was in accord with the guidelines of Johns Hopkins Medical Institutions. K1 cells stably transfected with doxcycycline-inducible wild-type RASAL1 or RASAL1 mutants constructed as described above were injected (1×10^7 cells/mouse) subcutaneously into flanks of female nude mice at the age of 4 weeks (Harlan Sprague Dawley, Indianapolis, Ind.). Mice were fed vehicle or 0.2 mg/mL doxycycline, which was stored in a 0.5% sucrose solution in light-proof bottles, beginning when the tumor grew to a size of 2 mm at 1.5 weeks after the inoculation of cells. Tumor size was measured, and volume was calculated using the formula (length×width2)/2. After 5 weeks, mice were sacrificed, and tumors were surgically removed, photographed, and weighed.
A further experiment has as its system C643 cells. Description: Anchorage independent colony formation, stable transfection. The experiment is classed as cell-based, human. To be noted: C643, stably transfected; n=3; control vector 92.67±18.15; P=0.03.
In a further experiment the test system is KAT18 cells. The experiment is described as above. The experiment is classed as cell-based, human. To be noted: KAT18, stably transfected; n=3; control vector 81.67±16.29; P=0.05.
Another experiment concerns WRO cells. Description: Colony formation in soft agar, stable transfection. The experiment is classed as cell-based, human. From the text:
FIG. 5. Examination of the effects of reintroduction of RASAL1 on RAS signaling and growth of thyroid cancer cells. A) A representative result of Western blotting analysis of RASAL1 expression and phosphorylation of ERK and Akt as well as other related proteins as indicated in various thyroid cancer cell lines that harbor different genetic alterations. B) A representative result of colony formation of thyroid cancer cells in monolayer culture after transfection of plasmids with or without insertion of RASAL1 cDNA followed by drug selection for 2 weeks. Cell colonies were stained with crystal violet. Scale bar=1 cm. C) Western blotting analysis of RASAL1 expression and phosphorylation of ERK and Akt and related proteins as indicated in three selected thyroid cancer cell lines stably transfected with RASAL1. D) Bar graph presentation of the colony numbers (mean±standard deviation) from three experiments for cells stably transfected with empty vectors or RASAL1 as in (C). Only cell colonies containing more than 50 cells were included.
(§1) FIG. 6. […] Scale bar=100 μm. […] Scale bar=100 μm.
Colony formation assays were performed as described previously (Liu et al., 92(6) J. CLIN. ENDOCRINOL. METAB. 2264-71 (2007)). […] Surviving colonies were counted after staining with crystal violet. […] After 3-4 weeks of culture, colonies were photographed and colony number was counted under a microscope.

Experiment [3] has as its system RAS (RAS-GTP) in WRO cells. As to the kind of experiment: RAS pull-down (RAS activation) assay with ATP stimulation. The experiment is classed as cell-based, human. The conditions noted are these: WRO cells stably transfected; ATP treatment. Here is the method: as §1
The protocol for cell treatment was as described previously (Walker et al., 23(8) EMBO J. 1749-60 (2004)). Briefly, cells were serum starved for 2 h in serum-free medium at 24 h post-transfection of wild-type H-RAS. Cells were then treated with 50 μM ATP for 1 min. A RAS activation assay kit (Cell Biolabs, San Diego, Calif.) was used to assess RAS activity. After treatment, cells were washed twice with ice-cold PBS and then lysed in 1 mL of assay lysis buffer. After centrifugation at 14,000×g for 10 min at 4° C., cell lysates were incubated at 4° C. for 1 h with 40 μL of the RAF1 RAS-binding domain-agarose beads. The beads were pelleted and washed three times with assay lysis buffer, and then resuspended in 2× reducing SDS-PAGE sample buffer. The quantities of activated RAS (RAS-GTP) were analyzed by Western blotting using anti-RAS monoclonal antibody.

Another experiment concerns K1 cells. Description: Colony formation with doxycycline-inducible RASAL1 expression. It counts as cell-based, human. To be noted: Dox-induced expression, control (no Dox) 86.00±8.54, P=0.006. The method, then:
as §1
Colony formation assays were performed as described previously (Liu et al., 92(6) J. CLIN. ENDOCRINOL. METAB. 2264-71 (2007)). For colony formation in monolayer culture, transfected cells (1×10^5 cells/well) were inoculated into a […], and 24-h later cells were selected with blasticidin (2 μg/mL) for 2 weeks. Surviving colonies were counted after staining with crystal violet. For colony formation in soft agar, cells (5×10^3 cells/well) were plated in RPMI 1640 containing 10% FBS and 0.33% agar in 12-well plates. After 3-4 weeks of culture, colonies were photographed and colony number was counted under a microscope.
RASAL1 cDNA, which was amplified from normal thyroid (Stratagene, La Jolla, Calif.) and tagged with c-myc epitope, was inserted into a modified lenti-virus vector that was derived from plenti6/V5-DEST (Invitrogen, Grand Island, N.Y.). The virus packaging and cell infection were performed as described previously (Liu et al., 18 CANCER RES. 7311-19 (2009)). To construct the plasmid for doxycycline-inducible expression of RASAL1, the CMV promoter in the modified plenti6/V5-DEST plasmid was replaced with the Xho I-EcoR V fragment of plasmid pUHG10-3 (Gossen et al., 89(12) PROC. NATL. ACAD. SCI. USA 5547-51 (1992)), which contained hCMV minimal promoter with heptamerized upstream tet-operators. […]

Experiment [4] relates to MAPK and PI3K signaling pathways (pERK, pAkt) in thyroid cancer cell lines. Description: Western blotting of ERK and Akt phosphorylation after RASAL1 expression. The conditions noted are these: for pERK and pAkt levels: acute expression; for pERK and pAKT: stable expression. It counts as cell-based, human. A general note: In western blotting, separated proteins are transferred to a membrane and probed.

The test system of experiment [5] is thyroid cancer cell lines. As to the kind of experiment: Colony formation in monolayer culture after transient RASAL1 transfection. It counts as cell-based, human. The conditions noted are these: transient reintroduction, compared with control vector; six of seven thyroid cancer cell lines tested.

`Nc1ncn([C@H]2C[C@H](O)[C@@H](CO)O2)c(=O)n1` [5-Aza, 5-aza-2-deoxycytidine]: in experiment [1] (in six of the eight thyroid cancer cell lines tested, 5 μM for 24 hours), the “RASAL1 expression (RT-PCR)” value is “restored its expression”. Besides, the “demethylation of RASAL1 (MSP analysis)” value is “induced demethylation of RASAL1” in experiment [1] and “Partial demethylation” in experiment [1] (listed as 5-Aza-dC).

B1: RASAL1: RASAL1 cDNA from normal thyroid, c-myc tagged, in lenti-virus vector, expressed in thyroid cancer cells; RasGAP tumor suppressor protein (protein, UniProt O95294 1-804, looked up)
RasGAP-activating-like …: MAKSSSLNVRVVEGRALPAKDVSGSSDPYCLVKVDDEVVARTATVWRSLGPFWGEEYTVHLPLDFHQLAFYVLDEDTVGHDDIIGKISLSREAITADPRGIDSWINLSRVDPDAEVQGEICLSVQMLEDGQGRCLRCHVLQARDLAPRDISGTSDPFARVFWGSQSLETSTIKKTRFPHWDEVLELREMPGAPSPLRVELWDWDMVGKNDFLGMVEFSPKTLQQKPPKGWFRLLPFPRAEEDSGGNLGALRVKVRLIEDRVLPSQCYQPLMELLMESVQGPAEEDTASPLALLEELTLGDCRQDLATKLVKLFLGRGLAGRFLDYLTRREVARTMDPNTLFRSNSLASKSMEQFMKLVGMPYLHEVLKPVISRVFEEKKYMELDPCKMDLGRTRRISFKGALSEEQMRETSLGLLTGYLGPIVDAIVGSVGRCPPAMRLAFKQLHRRVEERFPQAEHQDVKYLAISGFLFLRFFAPAILTPKLFDLRDQHADPQTSRSLLLLAKAVQSIGNLGQQLGQGKELWMAPLHPFLLQCVSRVRDFLDRLVDVDGDEAGVPARALFPPSAIVREGYLLKRKEEPAGLATRFAFKKRYVWLSGETLSFSKSPEWQMCHSIPVSHIRAVERVDEGAFQLPHVMQVVTQDGTGALHTTYLQCKNVNELNQWLSALRKASAPNPNKLAACHPGAFRSARWTCCLQAERSAAGCSRTHSAVTLGDWSDPLDPDAEAQTVYRQLLLGRDQLRLKLLEDSNMDTTLEADTGACPEVLARQRAATARLLEVLADLDRAHEEFQQQERGKAALGPLGP
modifications: c-myc tag
notes: RASAL1 cDNA from normal thyroid, c-myc tagged, in lenti-virus vector, expressed in thyroid cancer cells; RasGAP tumor suppressor protein
As to B1, the “effect on tumor growth” value in [2] (doxycycline-induced expression in K1 xenografts) is listed as “statistically significant inhibitory effect”. The tumor weight in experiment [2] (doxycycline-induced expression, after 5 weeks, without induction 1.01±0.54, P=0.047) is 0.66 ± 0.53 g. In [2] (doxycycline-induced expression, week 5, without induction 0.94±0.52, P=0.02), this molecule displayed a tumor volume of 0.49±0.4 cm3. Moreover, the colony number came out at 55.33±9.71 with C643 cells; 54.00±6.56 with KAT18 cells; 24.00±7.81 in the experiment with WRO cells (WRO cell pools, wild-type vs mutants experiment, vector 52.00±9.54, P=0.009); 21.67±6.35 with WRO cells (WRO, stably transfected, n=3, control vector 48.00±13.45, P=0.03); 40.33±6.03 in the experiment on K1 cells. In addition, in experiment [3], the “effect on activation of RAS and increase in pAKT and pERK stimulated by ATP” value was “suppressed the activation of RAS and the increase in pAKT and pERK”. Further, the “pERK and pAkt levels” value in experiment [4] (BCPAP cells (BRAF mutation)) is “only reduced pAKT but not pERK”; in experiment [4] (C643 cells (RAS mutation)), “No effect was observed; also recorded: no effect on pERK and pAKT”; in experiment [4] (FTC-133 cells (PTEN mutation)), “reduced pERK but not pAKT”; in experiment [4] (Hth7 cells (RAS mutation)), “No effect was observed”; in experiment [4] (KAT18 cells (wild-type RAS, BRAF, PIK3CA, PTEN)), “decreased both pERK and pAkt levels”; in experiment [4] (SW1736 cells (BRAF mutation)), “No effect was observed”. Moreover, the “pERK and pAkt levels” value in [4] (TPC1 cells (RET-PTC1 rearrangement)) is “no effect”; in [4] (WRO cells (wild-type RAS, BRAF, PIK3CA, PTEN)), “decreased both pERK and pAkt levels”. The “pERK and pAKT” value in experiment [4] (KAT18 cells) was “inhibition of pERK and pAKT was observed”; in experiment [4] (WRO cells) it was “inhibition of pERK and pAKT was observed”. In addition, the “cell colony growth in monolayer culture” value in experiment [5] was “dramatically inhibited cell colony growth”.
